Where “and” joins values, the source holds several entries; their conditions need not be identical. Equal values may be shown once.
Biological target: Xanthomonas campestris pv. campestris RpfB with an N-terminal hexahistidine tag (Xanthomonas campestris pv. campestris 8004)
Test: SEC

“Xanthomonas campestris pv. campestris RpfB with an N-terminal hexahistidine tag (enzyme)” was tested, and the stoichiometry N was 3 and 6.

— article PMC4114240
